Data: PMC6544321
Each block holds one binder with its values, some of them ahead of it.

Tests used:
[1] = target: yeast single-chain H2A.Z-H2B (yeast); experiment: ITC; 0.2 M NaCl (Table 1); Swc2-Z or Chz1-M injected into single-chain histone dimers; otherwise as the ITC methods (25°C, 20 mM MES pH 6.0)
[2] = target: yeast single-chain H2A.Z-H2B (yeast); experiment: ITC; MicroCal VP-ITC, 25°C, 20 mM MES (pH 6.0), 0.5 M NaCl; chaperone (50 or 150 μM) injected into histones (5 μM scZB or 15 μM scAB and mutants) in the cell; one-site fit
[3] = target: single-chain H2A.Z-H2B with H2A.Z A57P (yeast); experiment: as above
[4] = target: single-chain H2A.Z-H2B with H2B Y45A/M62A (yeast); experiment: as above
[5] = target: single chain H2A-H2B with H2A P50A/N91G (yeast); experiment: as above
[6] = target: single-chain H2A.Z-H2B with H2A.Z G98N (yeast); experiment: as above
[7] = target: single-chain H2A.Z-H2B with H2A.Z A57P/G98N (yeast); experiment: as above
[8] = target: single-chain H2A.Z-H2B with H2A.Z RA→GNV (yeast); experiment: as above

- Kd [1]: 20 nM
- stoichiometry N [1]: 1 sites
- Kd [2]: 1060 nM
- stoichiometry N [2]: 1 sites
B1: middle region of Chz1 (Chz1 64-124) (domain or fragment)
chain: TVEDSESDMDDAKLDALMGNEGEEEEDDLAEIDTSNIITSGRRTRGKVIDYKKTAEELDKK

- Kd [3]: 740 nM
- stoichiometry N [3]: 1 sites
- Kd [4]: 1120 nM
- stoichiometry N [4]: 0.8 sites
- Kd [5]: 160 nM
- stoichiometry N [5]: 1.1 sites
- Kd [2]: 120 nM
- stoichiometry N [2]: 0.9 sites
- Kd [6]: 970 nM
- stoichiometry N [6]: 0.9 sites
- Kd [7]: 3390 nM
- stoichiometry N [7]: 1.1 sites
- Kd [8]: 190 nM
- stoichiometry N [8]: 1 sites
B2: middle and C-terminal region of Chz1 (Chz1 64-153) (domain or fragment)
chain: TVEDSESDMDDAKLDALMGNEGEEEEDDLAEIDTSNIITSGRRTRGKVIDYKKTAEELDKKEPSTGSKDDVGYGEKEEDDEDEEDDDFKE

- Kd [2]: 130 nM
- stoichiometry N [2]: 1 sites
B3: full-length Chz1 (natural protein)
chain: MSDEAKEKRELESQKESSHNKSEKSVEPKPKRRRRRNYDDYDAEVAKEETKAKNGLTKSENNGTVEDSESDMDDAKLDALMGNEGEEEEDDLAEIDTSNIITSGRRTRGKVIDYKKTAEELDKKEPSTGSKDDVGYGEKEEDDEDEEDDDFKE
